Here are results for seven molecules from patent US12209135B2, “Anti-CD45 antibodies and conjugates thereof” (priority 2019, dated 2025).

T1: rhesus CD45 ectodomain (Macaca mulatta, UniProt A0A1D5R142)
T1 construct: purified human, rhesus or cynomolgus CD45 ectodomain
T1 sequence (A0A1D5R142 26-581): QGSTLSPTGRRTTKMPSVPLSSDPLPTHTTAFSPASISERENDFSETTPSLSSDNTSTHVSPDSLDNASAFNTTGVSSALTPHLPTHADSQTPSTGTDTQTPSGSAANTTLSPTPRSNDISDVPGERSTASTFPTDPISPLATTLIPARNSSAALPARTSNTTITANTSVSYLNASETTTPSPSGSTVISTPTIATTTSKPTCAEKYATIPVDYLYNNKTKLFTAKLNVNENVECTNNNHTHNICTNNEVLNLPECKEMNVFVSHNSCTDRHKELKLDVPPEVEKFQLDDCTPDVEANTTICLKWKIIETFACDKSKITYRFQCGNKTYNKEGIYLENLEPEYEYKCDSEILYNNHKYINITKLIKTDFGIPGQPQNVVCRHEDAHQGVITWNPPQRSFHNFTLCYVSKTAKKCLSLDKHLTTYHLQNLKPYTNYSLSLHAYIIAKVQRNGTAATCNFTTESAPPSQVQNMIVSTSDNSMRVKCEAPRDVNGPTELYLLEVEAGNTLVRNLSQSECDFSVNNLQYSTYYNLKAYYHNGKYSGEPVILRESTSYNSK

T2: human CD45 ectodomain (Homo sapiens, UniProt P08575)
T2 construct: purified human, rhesus or cynomolgus CD45 ectodomain
T2 sequence (P08575 26-577): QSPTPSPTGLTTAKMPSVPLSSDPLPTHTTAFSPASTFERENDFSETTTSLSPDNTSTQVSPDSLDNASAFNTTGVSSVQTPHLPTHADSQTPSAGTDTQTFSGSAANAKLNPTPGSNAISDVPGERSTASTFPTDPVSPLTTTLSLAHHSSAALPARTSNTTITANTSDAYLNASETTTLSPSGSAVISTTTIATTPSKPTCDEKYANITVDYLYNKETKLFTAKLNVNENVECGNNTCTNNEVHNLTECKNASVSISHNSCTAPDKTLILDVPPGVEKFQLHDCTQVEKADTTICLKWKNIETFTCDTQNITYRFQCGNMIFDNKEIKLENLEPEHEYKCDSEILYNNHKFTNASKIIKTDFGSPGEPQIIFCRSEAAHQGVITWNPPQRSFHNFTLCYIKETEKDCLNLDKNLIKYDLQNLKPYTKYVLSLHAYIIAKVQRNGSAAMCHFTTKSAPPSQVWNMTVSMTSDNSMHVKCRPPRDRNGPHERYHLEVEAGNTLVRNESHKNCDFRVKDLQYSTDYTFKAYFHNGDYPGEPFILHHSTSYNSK

B1: Ab5: variant of Ab4 with asparagine to serine substitution in CDR-L1; VH SEQ ID NO:41, VL SEQ ID NO:45 (antibody, V domains shown)
VH: EVQLVESGGGLVQPGGSLRLSCAASGFTFEAYSMNWVRQAPGKGLEWVSYISLSGATIHYADSVKGRFTISRDNAKNSLYLQMNSLRAEDTAVYYCARGGQYYYTSSDYGEVAFDIWGQGTMVTVSS
VL: DIVMTQSPLSLPVTPGEPASISCRSSQSLVSSGYNYLDWYLQKPGQSPQLLIYFGSSRASGVPDRFSGSGSGTDFTLKISRVEAEDVGVYYCMQRRRTPWSFGGGTKVEIK
B2: Ab6: affinity matured human anti-CD45 IgG derived from Ab1; VH SEQ ID NO:51, VL SEQ ID NO:55 (antibody, V domains shown)
VH: B1 VH with M122L
VL: B1 VL with M4L
B3: Ab7: variant of Ab3 with asparagine to serine substitution in CDR-L1; VH SEQ ID NO:61, VL SEQ ID NO:65 (antibody, V domains shown)
VH: B1 VH with E1Q, Q13K, E30G, A31G, L53I, H59T, T105D
VL: DIVMTQSPLSLPVTPGEPASISCRSSQSLVSSGYNYLDWYLQKPGQSPQLLIYFGSSRASGVPDRFSGSGSGTDFTLKISRVEAEDVGVYYCMQRRRTPPFTFGGGTKVEIK
B4: Ab2: affinity matured human anti-CD45 IgG derived from Ab1; VH SEQ ID NO:11, VL SEQ ID NO:15 (antibody, V domains shown)
VH: B1 VH with T105D
VL: B1 VL with S32N
B5: AbC: affinity matured variant of parent clone C; VH SEQ ID NO:91, VL SEQ ID NO:95 (antibody, V domains shown)
VH: EVQLVESGGGLVQPGGSLRLSCAASGFTFNNYWMTWVRQAPGKGLEWVSSISSSGGSIYYPDSVKDRFTISRDNAKNSLYLQMNSLRAEDMAVYYCARLYYYDGGGDAWGQGTLVTVSS
VL: GIQMTQSPSSLSASVGDRVTITCKASQDINKYLDWYQQKPGKAPKLLIYNTNNLHTGIPSRFSGSGSGTDYTLTISSLQPEDFATYYCLQHISRWTFGGGTKVEIK
B6: AbB: affinity matured variant of parent clone B; VH SEQ ID NO:81, VL SEQ ID NO:85 (antibody, V domains shown)
VH: EVQLVESGGGLVQPGGSLRLSCAASGFTFTNFWMAWIRQAPGKGLEWVASISSSGGSIYYPDSVKDRFTISRDNSKNTLYLQMNSLRAEDTAVYYCVKFHHYSGGGDAWGQGTLVTVSS
VL: B5 VL with G1D, D28N, Y49H, N50Y, I92S
B7: AbA: humanized and affinity matured variant of parent clone A; VH SEQ ID NO:71, VL SEQ ID NO:75 (antibody, V domains shown)
VH: EVQLLESGGGLVQPGGSLRLSCAASGFTFNNYWMTWVRQAPGKGLEWVSSISSSGGSIYYPDRVKGRFTISRDNSKNTLYLQMNSLRAEDTAVYYCARDERWAGAMDAWGQGTTVTVSS
VL: DIQMTQSPSSLSASVGDRVTITCKASQNINKNLDWYQQKPGKAPKLLIYETNNLQTGVPSRFSGSGSGTDFTLTISSLQPEDFATYYCYQHNSRFTFGQGTKLEIK

Substitutions are numbered along the chain they refer to.

Chain of cynomolgus CD45 ectodomain (as listed by the source): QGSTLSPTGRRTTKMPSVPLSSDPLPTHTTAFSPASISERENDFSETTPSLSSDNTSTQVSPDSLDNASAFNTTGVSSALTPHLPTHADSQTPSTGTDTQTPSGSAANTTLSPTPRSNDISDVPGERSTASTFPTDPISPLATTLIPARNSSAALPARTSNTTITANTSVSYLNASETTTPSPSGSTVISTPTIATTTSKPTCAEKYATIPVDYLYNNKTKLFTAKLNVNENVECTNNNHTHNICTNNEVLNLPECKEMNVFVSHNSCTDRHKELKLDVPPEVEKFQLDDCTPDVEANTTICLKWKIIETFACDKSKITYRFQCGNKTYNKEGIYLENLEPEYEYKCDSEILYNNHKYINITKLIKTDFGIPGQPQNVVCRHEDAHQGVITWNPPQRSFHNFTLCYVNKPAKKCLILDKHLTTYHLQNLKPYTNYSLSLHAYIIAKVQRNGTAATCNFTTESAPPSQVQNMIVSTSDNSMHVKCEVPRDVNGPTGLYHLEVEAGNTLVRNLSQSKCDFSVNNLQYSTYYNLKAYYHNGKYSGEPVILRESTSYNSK

The first experiment deals with T1, rhesus CD45 ectodomain. The experiment in a line: Biolayer interferometry (BLI, Octet) binding of immobilized IgG to purified CD45 ectodomain. The settings on record: Table 2, Rhesus CD45. As for the experimental part:
(§1) Antibody binding studies were performed at 25° C. in 1×PBS supplemented with 0.1% w/v bovine serum albumin with a Pall ForteBio Octet Red96 using biolayer interferometry (BLI).
The apparent monovalent affinity (KD), apparent association rate (KON), and apparent dissociation rate (KOFF) were determined by local full fitting with a 1:1 binding model as calculated by ForteBio data analysis software version 10 of each IgG to purified human, cynomolgus or rhesus CD45 ectodomain. […] Binding was confirmed using […]
A general note: In BLI a coated tip is dipped into the sample, and binding shifts an interference pattern.
B1: the “Kdis” value amounted to 0.000193 s⁻¹ and the “Kon” value was 113000 M⁻¹ s⁻¹.
B2: the “Kdis” value was 0.000175 s⁻¹ and the “Kon” value was determined as 122000 M⁻¹ s⁻¹.
On to B3, for which the “Kdis” value was determined as 0.000544 s⁻¹ and the “Kon” value came to 124000 M⁻¹ s⁻¹.
For B4 the same measures were 0.000192 s⁻¹ and 135000 M⁻¹ s⁻¹.

The experiment is the same for the next values; noted with them: Table 2, Rhesus CD45; 50 nM antigen (Ab1: 300 nM).
On to B1, for which the Kd (usually the concentration at which binding is half-saturated) was determined as 1.71 nM.
Turning to B2, the affinity, expressed as Kd, was 1.44 nM.
Still for that read-out and setting: with B3 the figure was 4.39 nM; with B4, 1.42 nM.

The target of a further experiment is T2, human CD45 ectodomain. The description is as above. To be noted: BLI / Octet. On the procedure:
as §1
(§2) The apparent monovalent affinity (KD), apparent association rate (KON), and apparent dissociation rate (KOFF) were determined by local full fitting with a 1:1 binding model as calculated by ForteBio data analysis software version 10 of each IgG to purified human, cynomolgus or rhesus CD45 ectodomain. […] Binding was confirmed using
Briefly, antibody binding studies were performed at 25° C. in 1×PBS supplemented with 0.1% w/v bovine serum albumin with a PALL FORTEBIO OCTET RED96 using biolayer interferometry (BLI). Each purified antibody was immobilized onto anti-human Fc biosensors (AHQ; PALL FORTEBIO 18-5001) and incubated with 100 nM of purified human or 300 nM of cynomolgus CD45 ectodomain.
(§3) The apparent monovalent affinity (KD), apparent association rate (KON), and apparent dissociation rate (KDIS or KOFF) were determined by local full fitting with a 1:1 binding model as calculated by FORTEBIO data analysis software version 10. […] Each of the selected humanized antibodies AbA, AbB, and AbC was able to cross react with human and cynomolgus CD45.
For the molecule B1, the “CD45 binding compared with parent (qualitative)” value is “did not alter CD45 binding”.
Same read-out and setting: in the case of B3 it was “did not alter CD45 binding”.

The experiment is the same for the next values; noted with them: Table 2, Human CD45.
On to B1, for which the “Kdis” value worked out at 3.36e-05 s⁻¹ and the “Kon” value was 233000 M⁻¹ s⁻¹.
B2: the “Kdis” value turned out to be 1.73e-05 s⁻¹ and the “Kon” value was 242000 M⁻¹ s⁻¹.
For B3 the same measures were 0.000615 s⁻¹ and 264000 M⁻¹ s⁻¹.
In the case of B4, the “Kdis” value stood at 2.8e-05 s⁻¹ and the “Kon” value amounted to 245000 M⁻¹ s⁻¹.

The same experiment, now with this note: Table 11, Human CD45.
Consider B5, for which the “KON” value was 50800 M⁻¹ s⁻¹ and the “Kdis” value amounted to 0.000149 s⁻¹.
On the same counts, the results for B6 are 43800 M⁻¹ s⁻¹ and 0.000239 s⁻¹.
On the same counts, the results for B7 are 50300 M⁻¹ s⁻¹ and 0.000181 s⁻¹.

Still in this experiment, the particulars now being: text b859.
B5: the “improved affinity over the parent clone” value is recorded as “greater than 4 fold”.

Another experiment deals with cynomolgus CD45 ectodomain. The description is as above. To be noted: Table 2, Cynomolgus CD45. As for the experimental part:
as §1, §2
Briefly, antibody binding studies were performed at 25° C. in 1×PBS supplemented with 0.1% w/v bovine serum albumin with a PALL FORTEBIO OCTET RED96 using biolayer interferometry (BLI). […]
as §3
As for B1, the “Kdis” value amounted to 0.000164 s⁻¹ and the “Kon” value was found to be 117000 M⁻¹ s⁻¹.
On to B2, for which the “Kdis” value turned out to be 0.000154 s⁻¹ and the “Kon” value is 118000 M⁻¹ s⁻¹.
As to B3, the “Kdis” value stood at 0.000537 s⁻¹ and the “Kon” value amounted to 127000 M⁻¹ s⁻¹.
For the molecule B4, the “Kdis” value worked out at 0.000129 s⁻¹ and the “Kon” value came to 119000 M⁻¹ s⁻¹.

The experiment is the same for the next values; noted with them: Table 2, Cynomolgus CD45; 50 nM antigen (Ab1: 300 nM).
In turn, B2 showed a dissociation constant (Kd) of 1.3 nM.
Molecule B3 returned a Kd of 4.24 nM. Against the preceding molecule, the Kd is about 3.3-fold higher.
B4 had a dissociation constant Kd of 1.08 nM.

Staying with this experiment, now noted: Table 11, Cyno CD45.
Turning to B5, the “KON” value stood at 11100 M⁻¹ s⁻¹ and the “Kdis” value came to 0.000282 s⁻¹.
B6: the “KON” value was determined as 8160 M⁻¹ s⁻¹ and the “Kdis” value worked out at 0.00042 s⁻¹.
For B7 the same measures were 9440 M⁻¹ s⁻¹ and 0.000322 s⁻¹.

Still in this experiment, the particulars now being: Table 11, Cyno CD45; 300 nM antigen.
As for B5, the Kd is 25.3 nM.
On the same count and under the same terms, with B6 the figure was 51.5 nM; with B7, 34.1 nM.
